For data set [1], the target named is Myc-Max 16 (S-aryl linked covalent dimer) (UniProt P01106;P61244 SEQ:1-82,SEQ:1-80). The data set is described as follows: EMSA. To be noted: protein: synthetic; tags: chemically synthesized; C-terminal cysteines crosslinked by dithiobenzene.
Data set [2] deals with Omomyc-Max 17 (S-aryl linked covalent dimer) (UniProt P01106;P61244 SEQ:1-90,SEQ:1-80). The data set is described as follows: EMSA. Particulars: protein: synthetic; tags: chemically synthesized; C-terminal cysteines crosslinked by dithiobenzene.
Data set [3] addresses Max-Max 14 (S-aryl linked covalent dimer) (UniProt P61244;P61244 SEQ:1-80,SEQ:1-80). The data set is described as follows: BLI. To be noted: protein: synthetic; tags: chemically synthesized; C-terminal cysteines crosslinked by dithiobenzene; chain copies: 2 stated.
Data set [4] addresses Omomyc-Omomyc covalent homodimer 4 (lysine-linked) (UniProt P01106;P01106 SEQ:1-90,SEQ:1-90). The data set is described as follows: EMSA; 2 uM protein, 1 uM DNA; MES 10 mM, KCl 150 mM, MgCl2 1 mM, pH 6.5, RT. To be noted: protein: synthetic; tags: chemically synthesized; C-termini linked via Lys-betaAla-Lys linker; chain copies: 2 stated. The protocol:
(§1) Biophysical characterization confirmed the folding and DNA-binding activity of the four covalent protein dimers 3, 4, 5, and 6. The dimers were first analyzed by sodium dodecyl sulfate polyacrylamide gel electrophoresis (SDS-PAGE). […] Next an electrophoretic mobility shift assay (EMSA) was performed to determine the dimers' DNA binding activity. At a DNA concentration of 1 μM and protein concentration of 2 μM, all dimers formed complexes with the E-Box DNA, as observed by the shift retardation on the gel.
(§2) The E-Box DNA probe (2 μM in binding buffer) was heated to 95° C. for 5 minutes and then let cool down to room temperature over 15 minutes for double-strand annealing. Protein dimer (4 μM in binding buffer: MES 10 mM, KCl 150 mM, MgCl₂ 1 mM, TCEP 1 mM, glycerol 10%, pH=6.5) was added to the DNA (final concentrations: 2 μM protein and 1 μM DNA) and the mixture was incubated for 1 h at room temperature. During the incubation, a 10% polyacrylamide gel was prerun (1 h, 4° C., 100 V) in 1× TBE buffer. After that time, DNA protein mixture (20 μL) was mixed with 6× DNA Loading Dye (4 μL)) and loaded on the gel, which was run at 75 V, for 90 min at 4° C. The gel was washed with water for 20 seconds and then stained with 0.02% ethidium bromide in 1xTBE buffer for 15 min at room temperature. Bands were visualized on a Biorad Gel imager.

For data set [5], the target named is Omomyc-MAX covalent heterodimer 6 (lysine-linked) (UniProt P01106;P61244 SEQ:1-90,SEQ:1-80). The data set is described as above. To be noted: protein: synthetic; tags: chemically synthesized; C-termini linked via Lys-betaAla-Lys linker; Boc-Gly coupled as last residue of MAX during synthesis. The procedure:
as §1, §2

Data set [6] has as its target MYC-MAX covalent heterodimer 5 (lysine-linked) (UniProt P01106;P61244 SEQ:1-82,SEQ:1-80). Described as above. Particulars: protein: synthetic; tags: chemically synthesized; C-termini linked via Lys-betaAla-Lys linker; Boc-Gly coupled as last residue of MAX during synthesis. The protocol: as §1, §2
Data set [7] addresses MYC monomer (bHLHZ, Example 2) (UniProt P01106 SEQ:1-82). The data set is described as follows: EMSA; negative control, 4 uM protein, 1 uM DNA. To be noted: protein: synthetic; tags: chemically synthesized by automated flow peptide synthesis. The procedure:
as §1, §2

Data set [8] deals with Myc analog 10 (C-terminal Cys) (UniProt P01106 SEQ:1-82). As to the kind of experiment: EMSA; Myc alone cannot homodimerize. Particulars: protein: synthetic; tags: chemically synthesized; C-terminal cysteine added. The text has this: (§3) The three synthetic analogs 10, 11, and 12 can form non-covalent dimers and bind to the target E-box DNA (5′-[…]-3′). […] However, it is not possible to determine which dimeric species form in a solution containing two different monomers. For instance, upon mixing Max (11) and Omomyc (12), three different dimers (Max/Max, Omomyc/Omomyc and Max/Omomyc) can form and potentially bind to DNA (FIG. 18). To assess the activity of these protein complexes in a reliable manner, access to well-defined covalent protein dimers is critical.

Data set [9] has as its target Myc-Myc 13 (S-aryl linked covalent dimer) (UniProt P01106;P01106 SEQ:1-82,SEQ:1-82). As to the kind of experiment: EMSA; negative control. To be noted: protein: synthetic; tags: chemically synthesized; C-terminal cysteines crosslinked by dithiobenzene; chain copies: 2 stated.
For data set [10], the target named is Max analog 11 (C-terminal Cys), non-covalent homodimer (UniProt P61244 SEQ:1-80). The data set is described as follows: EMSA; Max+Max. Particulars: protein: synthetic; tags: chemically synthesized; C-terminal cysteine added; chain copies: 2 stated.
Source text: as §3

Data set [11] has as its target Omomyc analog 12 (C-terminal Cys), non-covalent homodimer (UniProt P01106 SEQ:1-90). The data set is described as follows: EMSA; Omomyc+Omomyc. Particulars: protein: synthetic; tags: chemically synthesized; C-terminal cysteine added; chain copies: 2 stated.
Source text: as §3

B1: E-box DNA probe (22 bp) (dsDNA)
DNA 1: CCGGCTGACACGTGGTATTAAT
DNA 2: ATTAATACCACGTGTCAGCCGG
For B1, the binding result in [1] was “binds”; in data set [2], “binds”; in data set [4] it was “binds”; in data set [5] it was “binds”; in data set [6], “binds”; in data set [7] it was “no binding”. For the same molecule, the binding result in data set [8] was “no binding”; in data set [9], “no binding”; in data set [10], “binds”; in [11], “binds”. In [3], the Kd amounted to 50 nM.

For the origin of these results see patent publication US20240336649, “SYNTHESIS OF COVALENT PROTEIN DIMERS THAT CAN INHIBIT MYC-DRIVEN TRANSCRIPTION” (MASSACHUSETTS INSTITUTE OF TECHNOLOGY, published 2024).
